The series concerns the molecule itself. Description: cross-linking.

Broadly, the stoichiometry N is the number of molecules, sites or subunits per partner or assembly.

B1: recombinant full-length human advillin (GST tag cleaved) (natural protein, UniProt O75366 1-819, looked up)
chain: MPLTSAFRAVDNDPGIIVWRIEKMELALVPVSAHGNFYEGDCYVILSTRRVASLLSQDIHFWIGKDSSQDEQSCAAIYTTQLDDYLGGSPVQHREVQYHESDTFRGYFKQGIIYKQGGVASGMKHVETNTYDVKRLLHVKGKRNIRATEVEMSWDSFNRGDVFLLDLGKVIIQWNGPESNSGERLKAMLLAKDIRDRERGGRAKIGVIEGDKEAASPELMKVLQDTLGRRSIIKPTVPDEIIDQKQKSTIMLYHISDSAGQLAVTEVATRPLVQDLLNHDDCYILDQSGTKIYVWKGKGATKAEKQAAMSKALGFIKMKSYPSSTNVETVNDGAESAMFKQLFQKWSVKDQTMGLGKTFSIGKIAKVFQDKFDVTLLHTKPEVAAQERMVDDGNGKVEVWRIENLELVPVEYQWYGFFYGGDCYLVLYTYEVNGKPHHILYIWQGRHASQDELAASAYQAVEVDRQFDGAAVQVRVRMGTEPRHFMAIFKGKLVIFEGGTSRKGNAEPDPPVRLFQIHGNDKSNTKAVEVPAFASSLNSNDVFLLRTQAEHYLWYGKGSSGDERAMAKELASLLCDGSENTVAEGQEPAEFWDLLGGKTPYANDKRLQQEILDVQSRLFECSNKTGQFVVTEITDFTQDDLNPTDVMLLDTWDQVFLWIGAEANATEKESALATAQQYLHTHPSGRDPDTPILIIKQGFEPPIFTGWFLAWDPNIWSAGKTYEQLKEELGDAAAIMRITADMKNATLSLNSNDSEPKYYPIAVLLKNQNQELPEDVNPAKKENYLSEQDFVSVFGITRGQFAALPGWKQLQMKKEKGLF
For the protein B1, the binding result was “binds”.

B2: recombinant full-length human villin (GST tag cleaved) (natural protein, UniProt P09327 1-827, looked up)
chain: MTKLSAQVKGSLNITTPGLQIWRIEAMQMVPVPSSTFGSFFDGDCYIILAIHKTASSLSYDIHYWIGQDSSLDEQGAAAIYTTQMDDFLKGRAVQHREVQGNESEAFRGYFKQGLVIRKGGVASGMKHVETNSYDVQRLLHVKGKRNVVAGEVEMSWKSFNRGDVFLLDLGKLIIQWNGPESTRMERLRGMTLAKEIRDQERGGRTYVGVVDGENELASPKLMEVMNHVLGKRRELKAAVPDTVVEPALKAALKLYHVSDSEGNLVVREVATRPLTQDLLSHEDCYILDQGGLKIYVWKGKKANEQEKKGAMSHALNFIKAKQYPPSTQVEVQNDGAESAVFQQLFQKWTASNRTSGLGKTHTVGSVAKVEQVKFDATSMHVKPQVAAQQKMVDDGSGEVQVWRIENLELVPVDSKWLGHFYGGDCYLLLYTYLIGEKQHYLLYVWQGSQASQDEITASAYQAVILDQKYNGEPVQIRVPMGKEPPHLMSIFKGRMVVYQGGTSRTNNLETGPSTRLFQVQGTGANNTKAFEVPARANFLNSNDVFVLKTQSCCYLWCGKGCSGDEREMAKMVADTISRTEKQVVVEGQEPANFWMALGGKAPYANTKRLQEENLVITPRLFECSNKTGRFLATEIPDFNQDDLEEDDVFLLDVWDQVFFWIGKHANEEEKKAAATTAQEYLKTHPSGRDPETPIIVVKQGHEPPTFTGWFLAWDPFKWSNTKSYEDLKAELGNSRDWSQITAEVTSPKVDVFNANSNLSSGPLPIFPLEQLVNKPVEELPEGVDPSRKEEHLSIEDFTQAFGMTPAAFSALPRWKQQNLKKEKGLF
For the protein B2, the “stoichiometry N” value came to 2.
